By EC50 (read off the curve) is commonly meant the concentration needed to bring the measured effect to its halfway point. Read a high EC50 (read off the curve) as a need for much substance.

The record followed here is patent publication US20120093805A1.

The target of assay [1] is human sugar chain-deficient CD27 expressed on Lec8 cells (human) (UniProt P26842). Put plainly: flow cytometry (FCM) on CD27/Lec8-4 cells [A) (b]. For orientation: A flow cytometer gives signals particle by particle.
Assay [2] addresses cynomolgus CD27 (C-terminal His tag) with normal O-linked sugar chains expressed on CHO/DG44 cells (cynomolgus). The assay is described as follows: flow cytometry (FCM) on cynomolgus CD27/DG44 cells; number printed beside the broken bar.
The target of assay [3] is human CD27 with normal O-linked sugar chains expressed on CHO/DG44 cells (human) (UniProt P26842). The assay is described as follows: flow cytometry (FCM) on CD27/DG44-4 cells [B) (b].
Chain of human CD27 with normal O-linked sugar chains expressed on CHO/DG44 cells (human) (P26842 20-260 H233R limits assumed): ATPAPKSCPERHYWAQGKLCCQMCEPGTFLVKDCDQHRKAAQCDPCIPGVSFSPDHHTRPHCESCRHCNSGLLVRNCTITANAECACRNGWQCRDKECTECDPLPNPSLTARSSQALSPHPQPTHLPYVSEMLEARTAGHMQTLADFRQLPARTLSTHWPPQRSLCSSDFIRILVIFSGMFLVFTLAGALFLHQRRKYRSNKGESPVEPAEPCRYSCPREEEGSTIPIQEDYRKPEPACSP

Chain of human sugar chain-deficient CD27 expressed on Lec8 cells (human) (P26842 20-260 H233R limits assumed): as above

As for Anti-CD27 Antibody (O323), the EC50 (read off the curve) in assay [1] and in assay [3] was 0.1 µg/mL in each case. Further, the Mean Fluorescence Intensity in assay [2] was found to be 133.
